Laboratory results: the RNAGym collection of RNA variant scans (doi:10.7554/elife.80360)

B1: Hammerhead Ribozyme (parent)
chain: ACCGGAUGUGCUUUCCGGUCUGAUGAGUCCGUGAGGACGAAACAG

Variants of: B1
Experiment: self-cleavage, relative activity (ratio to wild type); higher = more cleavage; co-transcriptional

Row | Variant | self-cleavage
1 | ACCGGAAAUGCUUUCCGGUCUGAUGAGUCCGUGAGGACGAAACAG | 1.23
2 | ACCGGAUUUGCUUUCCGGUCUGAUGAGUCCGGGAGGACGAAACAG | 0.859
3 | ACCGGAUGUGCUUUCCGGUCUGAUGAGUCCGUGACGAAGAAACAG | 0.398
4 | ACCGGAUGUGCUUACCGGUUUGAUGAGUCCGUGAGGACGAAACAG | 0.398
5 | AGCGGAUGUGCUUUCCGGUCUGAUGAGUCCGUGAGGGCGAAACAG | 0.351
6 | ACCGGAUGUGCUCUCCGGUCUGAUGAGUCCGUGAGGAGGAAACAG | 0.458
7 | GCCGGAUGUGCUUUCCGGUCUGAUGAGUCCGUGAGAACGAAACAG | 1.21
8 | ACCGGAUGUGCUUUCCGGUCUGAUGACUCGGUGAGGACGAAACAG | 0.459
9 | ACCGGAUGUGCUUUCCGGUCUGAUGACUCAGUGAGGACGAAACAG | 0.401
10 | ACCGGAUGUGCUUUCCGGUCUGAUGAGUCUGUGAGGAAGAAACAG | 0.695
11 | ACCGGAUGUGCUUUCCGGUCUGAUGAGUCCAUGAGGUCGAAACAG | 0.866
12 | ACCGGAUGUGCUUUCCGGUGUGAUGAGUCCGUGAGGACGAAAGAG | 0.432
13 | ACCGGAUAUGCUUUCCGGUCUGCUGAGUCCGUGAGGACGAAACAG | 0.396
14 | ACCGGAUGUGCUUUCCGGUCUGAUGAGUCCGUAAGCACGAAACAG | 0.58
15 | ACCGGAUGUGCUUUCCGGUCUGAUAAGUUCGUGAGGACGAAACAG | 0.3
16 | ACCGGAUGUGCUUUCCGGUGUGAUGAGUCCAUGAGGACGAAACAG | 0.319
17 | ACCGGAUGUGCUUUCCAGUCUGAUGAGUCCGGGAGGACGAAACAG | 0.613
18 | ACCGGAUGUGAUUUCCGGUCUGAGGAGUCCGUGAGGACGAAACAG | 1.34
19 | ACCGGAUGUGCUUUCCGGUCUGAUGAAUCCGUGGGGACGAAACAG | 0.513

Row | Variant | self-cleavage
20 | ACCGGAUGUGCUUUCCGGUAUGGUGAGUCCGUGAGGACGAAACAG | 0.27
21 | ACCGGAUGUGCUUUCCGGUCUGAUGAAUCCGCGAGGACGAAACAG | 0.803
22 | ACCGGAUGUGCUUUCCGGUCUCAUGAGUCCGUGAGGACUAAACAG | 0.286
23 | ACCGGAUGUGCUUUCCGAUCUGAUGAGUCCGUGAGGACGAAACAU | 0.469
24 | ACCGGAUGUGCUUUCCGGUCUGAUGAGUCAGUGGGGACGAAACAG | 0.628
25 | ACCGGUUGUGCGUUCCGGUCUGAUGAGUCCGUGAGGACGAAACAG | 0.447
26 | ACCGGAUAUGCUUUCCGGUCUGAUGAGUCCGUUAGGACGAAACAG | 1.13
27 | ACCGGAUGUGCUUUCCGGUCUGAUGAGUCCGUGUGGAAGAAACAG | 0.409
28 | ACCGGUUGUGCUUUCCGGUCUGAUGAGUCCGUGAGGACGAAACUG | 0.36
29 | ACCGGAUAUGCUUUCCGGUCUGAUGAGUCCGUGAGGACGUAACAG | 0.343
30 | ACCGGAUGUGCUUUCCGGUCUGCUGAGUCCGUAAGGACGAAACAG | 0.621
31 | ACCGGAUGUGCUUUCCGGUCUGAUGCGUCGGUGAGGACGAAACAG | 0.33
32 | ACCGGAUGAUCUUUCCGGUCUGAUGAGUCCGUGAGGACGAAACAG | 1.07
33 | ACCGGAUGUGCUUUCCGGUCUGAUGAGUCCGUGAGUACGAAAGAG | 0.325
34 | ACCGGAUGUGCUUUCCGGUCUGAUGAGUCCGUGAGGGAGAAACAG | 0.639
35 | ACCGCAUGUGCAUUCCGGUCUGAUGAGUCCGUGAGGACGAAACAG | 0.788
36 | ACCGGGUGUGCUUUCCGAUCUGAUGAGUCCGUGAGGACGAAACAG | 0.486
37 | ACCUGAUGUGCUUUCCGGUCUAAUGAGUCCGUGAGGACGAAACAG | 0.297
38 | ACCGGAUGUGCUUUCCGGUCUUAUGAGUCCGUGAGGUCGAAACAG | 0.296

Row | Variant | self-cleavage
39 | ACUGGAUGUGCUUUCCGGUCUGAUGAGUCCGUGGGGACGAAACAG | 0.91
40 | GCCGGAUGUGCUUUCCGGUCUGAUGAGUCCGUUAGGACGAAACAG | 1.7
41 | CCCGGAUGUGCUUUCCGGUCUGAUGUGUCCGUGAGGACGAAACAG | 0.352
42 | ACCGGAUGAGCUUUCCGGGCUGAUGAGUCCGUGAGGACGAAACAG | 0.398
43 | AACGGAUGUGCUUUCCGGUCUGCUGAGUCCGUGAGGACGAAACAG | 0.297
44 | ACCGGACGUGCUUUCCGGUCUUAUGAGUCCGUGAGGACGAAACAG | 0.289
45 | ACCGGAUGUGCUUUCCGGUCUGAUGAGCCCGUGACGACGAAACAG | 0.534
46 | ACCGGAUGUGCUUUCCGGUCUGAUGCGUCCGUGAGGAAGAAACAG | 0.657
47 | ACCGGAUGUGGUUUCCGGUCUGAUAAGUCCGUGAGGACGAAACAG | 0.288
48 | ACCGGAUGUGCUUUCCGGUCUGAUGAGCCCGUGAGGACGAAACCG | 0.497
49 | ACAGGAUGUGCUUUCCGGUCUGAUGCGUCCGUGAGGACGAAACAG | 0.292
50 | ACCGGAUGUGCUUUCCGGCCUGAUGAGUCCGAGAGGACGAAACAG | 0.551
51 | ACCGGAUGUGCUUUCUGGUCUGAUGAGUCCGUGAGUACGAAACAG | 0.507
52 | ACCGGAUGUGCUUUCCGGUCUGAUGACUCCGUGAGGACAAAACAG | 0.302
53 | ACCGGAUGUGCUUUCCGGUCUGAUGAGUCCGUGAGGAUGAAAUAG | 0.34
54 | ACCGGAUUUGCUUUCCGGUCUGAUGAGUCGGUGAGGACGAAACAG | 0.942
55 | CCCGGAUGUGCUUUCCGGUCUGAUGAGUCCGUGAGGACGAAGCAG | 0.367
56 | ACCGGAUGUGCUUUCCGGUCUGAUGAGGCCGUUAGGACGAAACAG | 0.972
57 | ACCGGAUGGGCUUUCCGGUCUGAUGAGUACGUGAGGACGAAACAG | 0.655
